Data as given in patent publication US20220177560A1 (Janssen / Centocor, published 2022).

Assays:
human Aβ1-40 peptide = human Aβ1-40 peptide (human); assay: sandwich ELISA, BAMB31_1 coated, JRF/cAβ40/28-HRPO detection
rodent Aβ3pE-40 = molecular target: T1, rodent Aβ3pE-40 (rodent, pyroglutamate (pE) at the N-terminus, residue 3 of Aβ); assay: as above
T1 peptide: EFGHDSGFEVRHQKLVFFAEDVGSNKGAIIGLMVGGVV

human AβpE11-40 = molecular target: T2, human AβpE11-40 (human, pyroglutamate (pE) at the N-terminus, residue 11 of Aβ); assay: as above
T2 construct: also called Aβ11pE-40
T2 peptide: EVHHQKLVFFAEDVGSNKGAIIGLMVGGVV

human Aβ1-42 = human Aβ1-42 (human); assay: sandwich ELISA, BAMB31_1 coated, JRF/cAβ42/26-HRPO detection
AβpE11-42 = molecular target: T3, AβpE11-42 (human, pyroglutamate (pE) at the N-terminus, residue 11 of Aβ); assay: as above
T3 construct: also called Aβ11pE-42
T3 peptide: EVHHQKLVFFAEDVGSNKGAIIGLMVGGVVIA

Aβ3pE-42 = Aβ3pE-42 (pyroglutamate (pE) at the N-terminus, residue 3 of Aβ); assay: sandwich ELISA, BAMB31_1 coated, HRPO-labeled C-terminal antibody for detection

B1: BAMB31_1 (antibody, mouse IgG1, V domains shown)
VH: EIQLQQSGPELVKPGTSVKVSCKASGHVFTSYDMYWVKQSHGKSLEWIGYIDSDNGDTSYNQKFKGKATLTVDKSSSTAYMHLNSLTSEDSAVYYCAYYRYAMDYWGQGTSVTVSS
VL: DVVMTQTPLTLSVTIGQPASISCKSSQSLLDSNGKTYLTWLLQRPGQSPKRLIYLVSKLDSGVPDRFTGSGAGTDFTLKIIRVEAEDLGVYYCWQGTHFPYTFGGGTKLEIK
notes: Hybridoma antibody
Q: Does B1 bind (human Aβ1-40 peptide)?
A: no binding (tested: 10 ng/mL)

Q: Does B1 bind (rodent Aβ3pE-40)?
A: no binding (tested: 10 ng/mL)

Q: Does B1 bind (human AβpE11-40)?
A: no binding (tested: 10 ng/mL)

Q: Does B1 bind (human Aβ1-42)?
A: no binding (tested: 10 ng/mL)

Q: Does B1 bind (AβpE11-42)?
A: no binding (tested: 10 ng/mL)

Q: Does B1 bind (Aβ3pE-42)?
A: binds
